In patent US20190218553:

Target: von Willebrand factor (VWF) (Homo sapiens) (UniProt P04275)
Assay: filter
Settings: mAmCmGmAmAmCmUmGfCfCfCmUmC(6GLY)mGmAfCrGfCmAmCmAmGmAmCmGfUidT (6GLY = hexaethylene glycol linker); Bmax 60%; 2 mM CaCl2, 37 C

Sequence: ACGAACUGCCCUCGACGCACAGACGU [DTRI-009]
- Kd: 11 nM
